{
  "source": "patent US20200024330A1",
  "assay_in_all_cases": "cell-based or functional assay",
  "key": {"[1]": {"molecular_target": "HIV-1 Env of isolate 6535.3 (pseudovirus) (HIV-1 isolate 6535.3, subtype B)"}, "[2]": {"molecular_target": "HIV-1 Env of isolate 92UG024 (HIV-1)"}, "[3]": {"molecular_target": "HIV-1 Env of isolate 92WR020 (HIV-1)"}, "[4]": {"molecular_target": "HIV-1 Env of isolate 93TH305 (pseudovirus) (HIV-1 isolate 93TH305, subtype B)"}, "[5]": {"molecular_target": "HIV-1 Env of isolate 93WR029 (HIV-1)"}, "[6]": {"molecular_target": "HIV-1 Env of isolate CAAN.A2 (HIV-1)"}, "[7]": {"molecular_target": "HIV-1 Env of isolate MGRM-A-008 (clade A), on pseudovirus (HIV-1)"}, "[8]": {"molecular_target": "HIV-1 Env of isolate MGRM-C-006 (HIV-1)"}, "[9]": {"molecular_target": "HIV-1 Env of isolate MGRM-C-010 (HIV-1)"}, "[10]": {"molecular_target": "HIV-1 Env of isolate MGRM-C-013 (HIV-1)"}, "[11]": {"molecular_target": "HIV-1 Env of isolate MGRM-C-020 (HIV-1)"}, "[12]": {"molecular_target": "HIV-1 Env of isolate MGRM-D-020 (HIV-1)"}, "[13]": {"molecular_target": "HIV-1 Env of isolate MGRM-F1-021 (subtype F), on pseudovirus (HIV-1)"}, "[14]": {"molecular_target": "HIV-1 Env of isolate SC422661.8 (HIV-1)"}, "[15]": {"molecular_target": "HIV-1 Env of isolate TRJ04551.58 (HIV-1)"}, "[16]": {"molecular_target": "HIV-1 JR-CSF Env E172A (HIV-1 (isolate JR-CSF)) (UniProt P20871)"}, "[17]": {"molecular_target": "HIV-1 JR-CSF Env E466A (HIV-1 (isolate JR-CSF)) (UniProt P20871)"}, "[18]": {"molecular_target": "HIV-1 JR-CSF Env N197A (HIV-1 (isolate JR-CSF)) (UniProt P20871)"}, "[19]": {"molecular_target": "HIV-1 Env of isolate MGRM-G-001 (subtype G) (HIV-1)"}, "[20]": {"molecular_target": "HIV-1 Env of isolate MGRM-F1-015 (HIV-1)"}},
  "data": [
    {"substance": "5343_B08 (PGT-135) (antibody)", "values": [
      {"measurement": "IC50 (µg/mL) neutralization", "setting": "[1]", "result": "> 50", "unit": "µg/mL"},
      {"measurement": "IC50", "setting": "[2]", "result": 0.01, "unit": "µg/mL"},
      {"measurement": "neutralization IC50", "setting": "[3]", "result": 0.067, "unit": "µg/mL"},
      {"measurement": "IC50 (µg/mL) neutralization", "setting": "[4]", "result": "> 50", "unit": "µg/mL"},
      {"measurement": "neutralization IC50", "setting": "[5]", "result": "> 50", "unit": "µg/mL"},
      {"measurement": "IC50", "setting": "[6]", "result": 5.15, "unit": "µg/mL"},
      {"measurement": "IC50, single-round pseudovirus neutralization", "setting": "[7]", "result": "> 50", "unit": "µg/mL"},
      {"measurement": "IC50", "setting": "[8]", "result": "> 50", "unit": "µg/mL"},
      {"measurement": "IC50", "setting": "[9]", "result": "> 50", "unit": "µg/mL"},
      {"measurement": "IC50", "setting": "[10]", "result": "> 50", "unit": "µg/mL"},
      {"measurement": "IC50", "setting": "[11]", "result": "> 50", "unit": "µg/mL"},
      {"measurement": "IC50", "setting": "[12]", "result": "> 50", "unit": "µg/mL"},
      {"measurement": "IC50, pseudovirus neutralization", "setting": "[13]", "result": 0.065, "unit": "µg/mL"},
      {"measurement": "IC50", "setting": "[14]", "result": 21.8, "unit": "µg/mL"},
      {"measurement": "IC50", "setting": "[15]", "result": "> 50", "unit": "µg/mL"},
      {"measurement": "Fold IC50 increase relative to wild-type", "setting": "[16]", "result": 1.3, "unit": "fold"},
      {"measurement": "Fold IC50 increase relative to wild-type", "setting": "[17]", "result": 0.5, "unit": "fold"},
      {"measurement": "Fold IC50 increase relative to wild-type", "setting": "[18]", "result": 0.3, "unit": "fold"}
    ]},
    {"substance": "5345_I01 (PGT-137) (antibody)", "values": [
      {"measurement": "IC50 (µg/mL) neutralization", "setting": "[1]", "result": "> 50", "unit": "µg/mL"},
      {"measurement": "IC50", "setting": "[2]", "result": 0.106, "unit": "µg/mL"},
      {"measurement": "neutralization IC50", "setting": "[3]", "result": 0.005, "unit": "µg/mL"},
      {"measurement": "IC50 (µg/mL) neutralization", "setting": "[4]", "result": "> 50", "unit": "µg/mL"},
      {"measurement": "neutralization IC50", "setting": "[5]", "result": "> 50", "unit": "µg/mL"},
      {"measurement": "IC50", "setting": "[6]", "result": "> 50", "unit": "µg/mL"},
      {"measurement": "IC50, single-round pseudovirus neutralization", "setting": "[7]", "result": "> 50", "unit": "µg/mL"},
      {"measurement": "IC50", "setting": "[8]", "result": "> 50", "unit": "µg/mL"},
      {"measurement": "IC50", "setting": "[9]", "result": "> 50", "unit": "µg/mL"},
      {"measurement": "IC50", "setting": "[10]", "result": "> 50", "unit": "µg/mL"},
      {"measurement": "IC50", "setting": "[11]", "result": "> 50", "unit": "µg/mL"},
      {"measurement": "IC50", "setting": "[12]", "result": "> 50", "unit": "µg/mL"},
      {"measurement": "IC50, pseudovirus neutralization", "setting": "[13]", "result": "> 50", "unit": "µg/mL"},
      {"measurement": "IC50", "setting": "[14]", "result": "> 50", "unit": "µg/mL"},
      {"measurement": "IC50", "setting": "[15]", "result": "> 50", "unit": "µg/mL"}
    ]},
    {"substance": "PGT-121 (antibody)", "values": [
      {"measurement": "IC50 (µg/mL), pseudovirus neutralization", "setting": "[3]", "result": 0.004, "unit": "µg/mL"},
      {"measurement": "IC50 (µg/mL), pseudovirus neutralization", "setting": "[5]", "result": "> 50", "unit": "µg/mL"}
    ]},
    {"substance": "PGT-122 (antibody)", "values": [
      {"measurement": "IC50 (µg/mL), pseudovirus neutralization", "setting": "[3]", "result": 0.009, "unit": "µg/mL"},
      {"measurement": "IC50 (µg/mL), pseudovirus neutralization", "setting": "[5]", "result": "> 50", "unit": "µg/mL"}
    ]},
    {"substance": "PGT-141 (4964_G22; 4993_K13) (antibody)", "values": [
      {"measurement": "neutralization IC50", "setting": "[19]", "result": 0.392, "unit": "µg/mL"}
    ]},
    {"substance": "PGT-142 (4995_E20) (antibody)", "values": [
      {"measurement": "neutralization IC50", "setting": "[19]", "result": 0.362, "unit": "µg/mL"}
    ]},
    {"substance": "PGT-143 (4980_N08) (antibody)", "values": [
      {"measurement": "neutralization IC50", "setting": "[19]", "result": 0.423, "unit": "µg/mL"}
    ]},
    {"substance": "PGT-144 (4970_K22) (antibody)", "values": [
      {"measurement": "neutralization IC50", "setting": "[19]", "result": "> 50", "unit": "µg/mL"}
    ]},
    {"substance": "PGV04 (antibody)", "values": [
      {"measurement": "IC50 (µg/mL), pseudovirus neutralization", "setting": "[2]", "result": 0.201, "unit": "µg/mL"},
      {"measurement": "IC50 (µg/mL), pseudovirus neutralization", "setting": "[12]", "result": 0.097, "unit": "µg/mL"},
      {"measurement": "IC50 (µg/mL), pseudovirus neutralization", "setting": "[20]", "result": 0.179, "unit": "µg/mL"},
      {"measurement": "neutralization IC50", "setting": "[19]", "result": "> 50", "unit": "µg/mL"}
    ]},
    {"substance": "VRC01 (antibody)", "values": [
      {"measurement": "IC50", "setting": "[6]", "result": 0.722, "unit": "µg/mL"},
      {"measurement": "IC50, pseudovirus neutralization", "setting": "[12]", "result": 0.192, "unit": "µg/mL"},
      {"measurement": "IC50, pseudovirus neutralization", "setting": "[20]", "result": 0.387, "unit": "µg/mL"},
      {"measurement": "neutralization IC50", "setting": "[19]", "result": 0.0371, "unit": "µg/mL"},
      {"measurement": "neutralization IC50", "setting": "[14]", "result": 0.179, "unit": "µg/mL"},
      {"measurement": "neutralization IC50", "setting": "[15]", "result": 0.06, "unit": "µg/mL"}
    ]}
  ]
}
